Experimental data: patent US20150111836A1, “CELLULAR APOBEC3 PROTEINS AND MODULATORS THEREOF FOR REGULATING DNA REPAIR PROCESSES AND TREATING PROLIFERATIVE DISEASES” (priority 2012, published 2015)

What was measured:
[1] = biological target: T1, purified recombinant A3G-His6 (human APOBEC3G with C-terminal Myc-His6 tag, expressed in 293T cells) (human), Q9HC16
[2] = biological target: T1, purified recombinant A3G-His6 (human …); assay: cell-based or functional assay

T1 sequence (Q9HC16 whole entry): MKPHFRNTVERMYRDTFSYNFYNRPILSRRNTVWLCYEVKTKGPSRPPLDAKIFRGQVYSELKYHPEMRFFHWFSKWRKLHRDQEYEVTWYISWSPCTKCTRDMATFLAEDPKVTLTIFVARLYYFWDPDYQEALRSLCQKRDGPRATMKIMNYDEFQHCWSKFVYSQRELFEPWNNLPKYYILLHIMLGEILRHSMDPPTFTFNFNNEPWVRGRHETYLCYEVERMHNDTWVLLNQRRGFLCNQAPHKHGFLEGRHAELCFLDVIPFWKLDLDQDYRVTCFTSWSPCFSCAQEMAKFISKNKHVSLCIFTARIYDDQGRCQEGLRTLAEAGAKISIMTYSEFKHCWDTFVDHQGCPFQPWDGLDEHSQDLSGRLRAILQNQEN

| Binder | K'I [1] [nM] | IC50 of inhibition of A3G deaminase activity [2] [nM] | IC50 of inhibition of deaminase activity of purified A3G (experimental repeat) [2] [nM] | inhibition of A3G deaminase activity [2] [µM] | Ki [1] [nM] |
| --- | --- | --- | --- | --- | --- |
| VKHHMYISGKAKGWF (modifications not checked) [Vif25-39 peptide] | 250 | 600 | 1000 | 1 | – |
| QLIHLYYFDCFSESA (modifications not checked) [Vif105-119 peptide] | 92 | 100 | – | 1 | 68 |
